Reference: article PMC12124957 (Nature chemical biology, 2025)

Target: the molecule itself
Experiment: light scattering at 340 nm

B1: ^ΔCFtsH (T. maritima FtsH variant devoid of the N-terminal TM domain (residues 1–146) and of Cys residues) (domain or fragment, UniProt Q9WZ49 147-610, looked up)
chain: ATMYKPSGNKRVTFKDVGGAEEAIEELKEVVEFLKDPSKFNRIGARMPKGILLVGPPGTGKTLLARAVAGEANVPFFHISGSDFVELFVGVGAARVRDLFAQAKAHAPSIVFIDEIDAVGRHRGAGLGGGHDEREQTLNQLLVEMDGFDSKEGIIVMAATNRPDILDPALLRPGRFDKKIVVDPPDMLGRKKILEIHTRNKPLAEDVNLEIIAKRTPGFVGADLENLVNEAALLAAREGRDKITMKDFEEAIDRVIAGPARKSKLISPKEKRIIAYHEAGHAVVSTVVPNGEPVHRISIIPRGYKALGYTLHLPEEDKYLVSRNELLDKLTALLGGRAAEEVVFGDVTSGAANDIERATEIARNMVSQLGMSEELGPLAWGKEEQEVFLGKEITRLRNYSEEVASKIDEEVKKIVTNSYERAKEIIRKYRKQLDNIVEILLEKETIEGDELRRILSEEFEKVVE
- koff: ≥ 1.6 s⁻¹
